B1: ovalbumin (protein, UniProt P01012 2-386, looked up)
Ovalbumin: GSIGAASMEFCFDVFKELKVHHANENIFYCPIAIMSALAMVYLGAKDSTRTQINKVVRFDKLPGFGDSIEAQCGTSVNVHSSLRDILNQITKPNDVYSFSLASRLYAEERYPILPEYLQCVKELYRGGLEPINFQTAADQARELINSWVESQTNGIIRNVLQPSSVDSQTAMVLVNAIVFKGLWEKAFKDEDTQAMPFRVTEQESKPVQMMYQIGLFRVASMASEKMKILELPFASGTMSMLVLLPDEVSGLEQLESIINFEKLTEWTSSNVMEERKIKVYLPRMKMEEKYNLTSVLMAMGITDVFSSSANLSGISSAESLKISQAVHAAHAEINEAGREVVGSAEAGVDAASVSEEFRADHPFLFCIKHIATNAVLFFGRCVSP
notes: bona fide non-self control antigen
B2: truncated p69: 100 amino acid truncated p69 encoded by clone IS4 cDNA, contains Tep69 region, SEQ ID No. 41 (protein)
chain: MSGHKCSYPWDLQDRYAQDKSVVNKMQQKYWETKQAFIKATGKKEDEHVVASDADLDAKLELFHSIQRTCLDLSKAIVLYQKRICSF
B3: rec-p69: recombinant human islet cell antigen p69 expressed in E. coli, SEQ ID No. 2 (protein)
chain: MSGHKCSYPWDLQDRYAQDKSVVNKMQQKYWETKQAFIKATGKKEDEHVVASDADLDAKLELFHSIQRTCLDLSKAIVLYQKGICFLSQEENELGKFLRSQGFQDKTRAGKMMQATGKALCFSSQQRLALRNPLCRFHQEVETFRHRAISDTWLTVNRMEQCRTEYRGALLWMKDVSQELDPDLYKQMEKFRKVQTQVRLAKKNFDKLKMDVCQKVDLLGASRCNLLSHMLATYQTTLLHFWEKTSHTMAAIHESFKGYQPYEFTTLKSLQDPMKKLVEKEEKKKINQQESTDAAVQEPSQLISLEEENQRKESSSFKTEDGKSILSALDKGSTHTACSGPIDELLDMKSEEGACLGPVAGTPEPEGADKDDLLLLSEIFNASSLEEGEFSKEWAAVFGDGQVKEPVPTMALGEPDPKAQTGSGFLPSQLLDQNMKDLQASLQEPAKAASDLTAWFSLFADLDPLSNPDAVGKTDKEHELLNA

Legend:
C57/B6 and SJL mice = experiment: Serum antibodies to BSA and p69 by fluoroimmunoassay, control mice (Example 11); type: in vivo, mouse; conditions: 50 μg sc in complete Freund's adjuvant
Procedure: (§1) Male non-obese diabetic mice (NOD, 6-7 weeks old) were immunized with 50 μg BSA, ABBOS-short peptide ([…]), recombinant truncated p69 or p69 T cell epitope peptide `Tep69` ([…]) (10). Recombinant truncated p69 was prepared by expression of a portion of the cDNA of IS4. The cDNA was cut a few nucleotides downstream of the 3' terminal of exon 3 and was subcloned into the PET™ expression system according to the manufacturer's recommendations (Novagen Inc., Madison, Wis.).
(§2) Antigens were injected subcutaneously in complete Freunds' adjuvant, and local lymph nodes and blood samples were collected 10 days later. […] Six hours before harvesting, 1 μCi ^3 H-thymidine (6.7 Ci/mmol) was added to the wells, and isotope incorporation was analysed by liquid scintillation counting. Values are expressed as mean counts per minute ± standard deviation (mean cpm ± SD).
(§3) Serum antibodies to BSA and p69 were measured by particle concentration fluoroimmunoassay, as described (11). […] Bound fluorescence was read by an automated ScreenMachine™ instrument (IDEXX, Portland, Me.). Data are expressed in kilofluorescence units relative to a standard mouse serum analyzed in parallel within each assay plate.
(§4) Young male NOD mice (H2^G7, IE^-/-) received a single immunization with truncated p69 (as encoded by IS4 cDNA) in complete adjuvant, and antibody and T cell proliferative responses were measured 8-10 days later. […]

[1] = tested on: C57/B6 and SJL mice lymph node cells; experiment: Immunization and T cell proliferation assay, non-diabetes prone control mice (Example 11); type: in vivo, mouse; conditions: 50 μg sc in complete Freund's adjuvant
Procedure: (§5) Recombinant truncated p69 was prepared by expression of a portion of the cDNA of IS4. The cDNA was cut a few nucleotides downstream of the 3' terminal of exon 3 and was subcloned into the PET™ expression system according to the manufacturer's recommendations (Novagen Inc., Madison, Wis.). The truncated protein contains 100 amino acids and is essentially identical with the murine molecule.
(§6) Antigens were injected subcutaneously in complete Freunds' adjuvant, and local lymph nodes and blood samples were collected 10 days later. Triplicate cultures of 2×10^5 lymph node cells were incubated for 5 days in serum-free HGM-af Medium™ (Promo Cell, Heidelberg, Germany) in the presence of 1 μg of protein or synthetic peptide as recall antigen. Six hours before harvesting, 1 μCi ^3 H-thymidine (6.7 Ci/mmol) was added to the wells, and isotope incorporation was analysed by liquid scintillation counting. Values are expressed as mean counts per minute ± standard deviation (mean cpm ± SD).
(§7) Young male NOD mice (H2^G7, IE^-/-) received a single immunization with truncated p69 (as encoded by IS4 cDNA) in complete adjuvant, and antibody and T cell proliferative responses were measured 8-10 days later. MHC disparate C57/B6 (H2^b, IE^-/-) and SJL (H2^s, IE^-/-) mice served as non-diabetes prone controls (FIG. 31).

NOD mice = experiment: Serum antibodies to BSA and p69 by fluoroimmunoassay, NOD mice (Example 11); type: in vivo, mouse; conditions: 50 μg sc in complete Freund's adjuvant
Procedure: as §1, §2, §3, §4

[2] = tested on: NOD mice lymph node cells; experiment: Immunization and T cell proliferation assay, NOD mice (Example 11); type: in vivo, mouse; conditions: 50 μg sc in complete Freund's adjuvant, recall with 1 μg antigen in vitro
Procedure: as §5, §6, §7

[3] = tested on: PBMC from healthy subjects; experiment: T cell proliferation assay with BSA and rec-p69, healthy subjects (Example 3); type: cell-based, human; conditions: with or without IL2
Procedure: (§8) Cultures containing 5×10^4 cells were incubated for 7 days at 37° C. in serum-free HL-1 medium (Ventrex, Portland, Me.) containing 1 μg antigen per well for test samples.
(§9) Control cultures were treated with 1 μg human, chick or horse albumin or an equivalent volume of control recombinant antigen prepared from lysates of E. coli carrying wild type plasmid.
(§10) After an overnight pulse of 1 μci ^3 H thymidine, cultures were harvested and submitted to liquid scintillation counting. Proliferation was expressed as cpm ^3 HTdR×10^-3.
(§11) A parallel set of cell cultures was incubated with the same test antigens or control agents in the presence of 10 U human IL2.

[4] = tested on: PBMC from children with recent onset diabetes; experiment: T cell proliferation assay with BSA and rec-p69, patients (Example 3); type: cell-based, human; conditions: 1 μg antigen
Procedure: as §8, §9, §10, §11

[5] = listed as recombinant truncated p69

Row | Molecule | antibody response after immunisation (anti-p69 or anti-BSA) (C57/B6 and SJL mice) | T cell proliferative response after immunisation [1] | antibody response after immunisation (anti-p69 or anti-BSA) (NOD mice) | antibody response after immunisation (anti-p69 or anti-BSA) (NOD mice; [5]) | T cell proliferative response after immunisation [1, 5] | T cell proliferative response after immunisation [2] | T cell proliferative response after immunisation [2, 5] | proliferative response of samples from healthy subjects [3] | proliferative response of patient samples ([4]; absence of IL2) | proliferative response of patient samples ([4]; absence of IL2, listed as recombinant human p69 protein) | proliferative response of patient samples ([4]; presence of 10 U IL2, listed as recombinant human p69 protein)
1 | B1 | comparable responses | comparable responses | – | – | – | – | – | – | – | – | –
2 | B2 | not in C57/B6 or SJL strains | not in C57/B6 or SJL strains | Vigorous p69-specific antibody and T cell responses | vigorous B- and T cell responses | essentially no responses | Vigorous p69-specific antibody and T cell responses | vigorous B- and T cell responses | – | – | – | –
3 | B3 | – | – | – | – | – | – | – | no significant proliferative response | at best a small proliferative response | little or no proliferative response | full proliferative response

Reference: US6207389A, “Methods of controlling T lymphocyte mediated immune responses” (HRC Research and Development Limited Partnership, priority 1995, dated 2001)
